In article PMC5845983 one finds Kd and koff data, which are given here for two substances.

Experiment [1] deals with CR1 soluble CR1 (Homo sapiens) (UniProt P17927). Kind of experiment: SPR. To be noted: cited from earlier work.
Experiment [2] addresses CR1 CCP22-30 (Homo sapiens) (UniProt P17927). The experiment can be described thus: SPR. To be noted: cited from earlier work.
Experiment [3] has as its target CR1 bimodular fragment CCP24-25 His6 (human). Kind of experiment: SPR; BIAcore 3000, multiple cycle; CCP24-25 amine-coupled on CM5 (1,000 RU); MBL injected at 20 µl/min in buffer with 3 mM EDTA (methods: HBS-P; legend of Figure 4: 50 mM TEA, 145 mM NaCl, 0.05% P20, pH 7.4); global 1:1 Langmuir fit; apparent KD = kd/ka.

Chain of MBL (P11226 21-248): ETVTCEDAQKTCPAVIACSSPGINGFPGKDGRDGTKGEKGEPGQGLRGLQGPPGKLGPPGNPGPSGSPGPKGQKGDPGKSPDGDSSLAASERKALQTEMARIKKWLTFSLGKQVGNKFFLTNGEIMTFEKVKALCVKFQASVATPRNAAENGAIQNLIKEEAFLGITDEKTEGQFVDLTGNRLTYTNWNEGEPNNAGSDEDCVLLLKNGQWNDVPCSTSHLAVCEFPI

As for MBL (from UniProt P11226), the Kd in experiment [1] is 0.76 nM; in experiment [2], 0.37 nM.
In the case of “Recombinant mannose-binding lectin (MBL) (from UniProt P11226 21-248) (natural protein)”, in experiment [3], the Kd was determined as 0.65 nM and the koff was determined as 0.00109 s⁻¹.
